Measurements from patent US20230365685A1 (SUZHOU NEOLOGICS BIOSCIENCE, published 2023).

How the values were obtained:
biotinylated human TIM-3 [1] = molecular target: T1, biotinylated human TIM-3 (human, UniProt Q8TDQ0 22-202, limits assumed, biotinylated (sites not given)); assay: competition ELISA: antibody coated, biotinylated human TIM-3 preincubated with competitor MBG453
biotinylated human TIM-3 [2] = molecular target: T1, biotinylated human TIM-3; assay: competition ELISA: antibody coated, biotinylated human TIM-3 preincubated with competitor 3E6
Protocol: (§1) Antibodies were diluted with PBS to 2 μg/mL. 50 μl antibody solution was added to each well of the 96-well plate, which was incubated at 4° C. overnight. The plate was then washed with wash buffer (0.05% Tween in PBS) three times and blocked with 5% skim milk in PBS at 37° C. for two hours. The biotinylated human TIM-3 and antibodies were preincubated at room temperature for half an hour and then added to the plate. The plate was then incubated at room temperature for 1 hour and washed three times with wash buffer. 50 μl streptavidin HRP (1:1000, BD) was then added to each well at room temperature and incubated for about 1 hour. 50 μl of TMB substrate was added to each well, and the reaction was then terminated with 50 μl HCL after 1-5 minutes. Absorbance was read at 450 nm and IC50 value was analyzed.

biotinylated human TIM-3 [3] = molecular target: T1, biotinylated human TIM-3; assay: competition ELISA: antibody coated, biotinylated human TIM-3 preincubated with competitor TSR022
Protocol: as §1

biotinylated human TIM-3 [4] = molecular target: T1, biotinylated human TIM-3; assay: competition ELISA: antibody coated, biotinylated human TIM-3 preincubated with competitor 4H2
Protocol: as §1

cynomolgus TIM-3 [5] = molecular target: T2, cynomolgus TIM-3 (cynomolgus, UniProt A0A2K5U3G7 22-294); assay: flow cytometry on 293T cells stably expressing cynomolgus TIM-3, serially diluted antibody, PE-labelled secondary antibody [upper panel]
T2 construct: whole, on cells
T2 sequence: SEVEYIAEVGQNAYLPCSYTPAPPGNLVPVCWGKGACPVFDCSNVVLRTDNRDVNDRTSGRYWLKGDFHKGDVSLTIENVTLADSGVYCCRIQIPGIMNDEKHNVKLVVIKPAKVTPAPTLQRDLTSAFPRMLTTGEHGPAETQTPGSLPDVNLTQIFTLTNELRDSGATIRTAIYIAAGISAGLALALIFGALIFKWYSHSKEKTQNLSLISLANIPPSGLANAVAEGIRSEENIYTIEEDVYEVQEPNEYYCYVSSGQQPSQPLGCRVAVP
Protocol: (§2) Briefly, serially diluted anti-TIM-3 antibodies were incubated with cell lines stably expressing mouse TIM-3 or cynomolgus TIM-3 (10⁵ cells/well). Then, PE-labelled mouse anti-human IgG antibody (Biolegend) was used as detection antibody. A flow cytometer (Canto II, BD, USA) was used to measure fluorescence.

biotinylated human TIM-3 [6] = molecular target: T1, biotinylated human TIM-3; assay: competition ELISA: antibody coated, biotinylated human TIM-3 preincubated with competitor 19D11
Protocol: as §1

human TIM-3 = molecular target: T3, human TIM-3 (human, UniProt Q8TDQ0 22-202, limits assumed); assay: blocking assay, flow cytometry: antibody preincubated with recombinant human TIM-3-Fc, then binding of TIM-3-Fc to apoptotic 293T cells; blocked ligand: phosphatidylserine
T3 construct: also called HAVCR2; target antigen
Protocol: After the cells were washed once, PE-labelled goat anti-mouse IgG antibody was added and incubated for 1 hour at 4° C. Finally, samples were washed once with 1× Annexin-V buffer and fluorescence was measured with a flow cytometer (Canto II, BD, USA).

mouse TIM-3 = molecular target: T4, mouse TIM-3 (mouse, UniProt Q8VIM0 20-281); assay: flow cytometry on cells stably expressing mouse TIM-3, PE-labelled secondary antibody; concentration not shown
T4 construct: whole, on cells

biotinylated human TIM-3 [7] = molecular target: T1, biotinylated human TIM-3; assay: competition ELISA: antibody coated, biotinylated human TIM-3 preincubated with competitor CH 11#
Protocol: as §1

[8] = molecular target: T5, human TIM-3 recombinant protein (TIM-3-his) (human, UniProt Q8TDQ0 22-202); assay: biosensor (HFC sensor, Probe Life): antibody captured, TIM-3-his in solution, 1:1 fit;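 also: antigen applied as a twofold dilution series, association and dissociation phases recorded, KD obtained as koff divided by kon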
T5 construct: also called TIM-3 protein; not shown: His tag

biotinylated human TIM-3 [9] = molecular target: T1, biotinylated human TIM-3; assay: competition ELISA: antibody coated, biotinylated human TIM-3 preincubated with competitor CH 10#
Protocol: as §1

biotinylated human TIM-3 [10] = molecular target: T1, biotinylated human TIM-3; assay: competition ELISA: antibody coated, biotinylated human TIM-3 preincubated with competitor 16H1
Protocol: as §1

cynomolgus TIM-3 [11] = molecular target: T2, cynomolgus TIM-3; assay: flow cytometry on 293T cells stably expressing cynomolgus TIM-3, serially diluted antibody, PE-labelled secondary antibody [lower panel]
Protocol: as §2
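For inhibit percentage in this document: plate-coated antibody at 2 µg/mL.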

B1: 3E6 (antibody, V domains shown)
VH: DVQLQEAGPGLVKPSQSLSLNCTVTGYSITSGFAWNWIRQFPGNKLEWMGYISHSGSTSYNPSLKSRISITRDTSKNQFFLQLNSVTTEDTATYYCARGYRSPWFAYWGQGTLVTVSA
VL: DIIMTQSQKFMSTSVGDRVSVTCKASQNVGANVAWYQQKPRQSPKALIYSASYRYSGVPDRFTGSGSGTDFTLTISNVQSEDLAEYFCQQYNSYPTFGGGTKLEIK
Work on B1 yielded an inhibit percentage (biotinylated human TIM-3 [1]) of 24.9%, an inhibit percentage (biotinylated human TIM-3 [2]) of 100% and an inhibit percentage (biotinylated human TIM-3 [3]) of 16.4%. For the same binder, the inhibit percentage (biotinylated human TIM-3 [4]) was 99.6%, the “EC50 (read off the curve)” value (cynomolgus TIM-3 [5]) was ~0.1 µg/mL and the inhibit percentage (biotinylated human TIM-3 [6]) was 38.7%. For the same binder, the “IC50 (read off the curve)” value (human TIM-3) was ~4 µg/mL, the binding result (mouse TIM-3) was “no binding” and the inhibit percentage (biotinylated human TIM-3 [7]) was 67.1%. For the same binder, the Kd [8] was 0.23 nM, the koff [8] was 0.000284 s⁻¹ and the kon [8] was 1.24e+06 M⁻¹ s⁻¹. It also gave an inhibit percentage (biotinylated human TIM-3 [9]) of 50.1% and an inhibit percentage (biotinylated human TIM-3 [10]) of 26.3%.

B2: 19D11 (antibody, V domains shown)
VH: DVQLQESGPDLVKPSQSLSLTCTVTGYSITSGYSWHWIRQFPGNKLEWMGYIYFSGSTNYNPSLKSRISITRDTSKNQFFLQLNSVTTEDTATYYCARGYRSAWFAYWGQGTLVTVSA
VL: DIVMTQSQKFMSTSVGDRVSVTCKASQNVGTNVAWYQQKPGQSPKTLIYSASYRYSGVPDRFTGSGSGTDFTLTISNVQSEDLAEYFCQQYNSYPLVTFGTGTKLELK
Binder B2 has an inhibit percentage (biotinylated human TIM-3 [1]) of 0%, an inhibit percentage (biotinylated human TIM-3 [2]) of 100% and an inhibit percentage (biotinylated human TIM-3 [3]) of 10.3%. For the same binder, the inhibit percentage (biotinylated human TIM-3 [4]) was 100%, the inhibit percentage (biotinylated human TIM-3 [6]) was 100% and the “IC50 (read off the curve)” value (human TIM-3) was ~7 µg/mL. For the same binder, the binding result (mouse TIM-3) was “no binding”, the inhibit percentage (biotinylated human TIM-3 [7]) was 100% and the Kd [8] was 0.604 nM. For the same binder, the koff [8] was 0.00037 s⁻¹, the kon [8] was 613000 M⁻¹ s⁻¹ and the inhibit percentage (biotinylated human TIM-3 [9]) was 100%. The inhibit percentage (biotinylated human TIM-3 [10]) was 0%.

B3: 16H1 (antibody, V domains shown)
VH: QVQLQQSGPQLVRPGSSVQISCKTSGYSFTSYLMHWVRQRPGQGLEWIGSIDPSDSEISLNQKFMDKATLTVDKSSSTANMQFSSPTSEDSAVYFCARDFGYVAWFVYWGQGTLVTVSA
VL: DIVMTQSHKFMSTSIEDRVSITCKASQDVSAAVAWYQQKPGQTPKLLIYSTFYRYIGVPDRFTGSGSGTDFTFTITSVQAEDLAVYFCQQHYSVPWTFGGGTKLEIK
notes: also called I6H1
In the case of B3, the inhibit percentage (biotinylated human TIM-3 [1]) is reported as 81.7%, the inhibit percentage (biotinylated human TIM-3 [2]) is reported as 60% and the inhibit percentage (biotinylated human TIM-3 [3]) is reported as 4.02%. For the same binder, the inhibit percentage (biotinylated human TIM-3 [4]) was 64.7%, the “EC50 (read off the curve)” value (cynomolgus TIM-3 [5]) was ~0.04 µg/mL and the inhibit percentage (biotinylated human TIM-3 [6]) was 0.06%. The “IC50 (read off the curve)” value (human TIM-3) was ~2 µg/mL, the binding result (mouse TIM-3) was “no binding” and the inhibit percentage (biotinylated human TIM-3 [7]) was 8.26%. The Kd [8] was 0.168 nM, the koff [8] was 0.000218 s⁻¹ and the kon [8] was 1.3e+06 M⁻¹ s⁻¹. It also gave an inhibit percentage (biotinylated human TIM-3 [9]) of 15.1% and an inhibit percentage (biotinylated human TIM-3 [10]) of 100%.

B4: 3F2 (antibody, V domains shown)
VH: EVQLQQSGPELVKTGSSVKISCKASGYSFTGYYMHWVRQSPGKSLEWIGYISCYNGATNYNQKFKGKATFTVDTYSSTAYMQFDSLASEDSAVYYCVRDYYLSVMDYWGQGTSVTVSS
VL: NIMMTQSPSSLAVSAGEKVTMSCKSSQSVLYSSNQKNYLAWYQQKPGQSPKLLIYWASFRESGVPDRFTGSGSGTDFTLTISSVQAEDLAVYYCHQSLSSYTFGGGTKLEIK
B4 was tested, and the “EC50 (read off the curve)” value (cynomolgus TIM-3 [11]) was ~0.4 µg/mL, the Kd [8] was 1.11 nM and the koff [8] was 0.00066 s⁻¹. It also gave a kon [8] of 596000 M⁻¹ s⁻¹.

B5: 4H2 (antibody, V domains shown)
VH: EVQLQESGPSLVKPSQTLSLTCSVTGDSITSGYWNWIRKFPGNKLEYMGYINYSGSTYYNPSLKSRISITRDTSKNQYYLQLNSVTTEDTATYYCATGNHFDYWGQGTTLTVSS
VL: DIQMTQSPSSLSASLGGKVTITCKASQDINKYIAWYQHKPGKGPRLLIHYTSTLQPGIPSRFSGSGSGTDYSFSISNLEPEDFATYYCLQYDNLLFTFGSGTKLEIK
B5 gave an inhibit percentage (biotinylated human TIM-3 [1]) of 28%, an inhibit percentage (biotinylated human TIM-3 [2]) of 99.9% and an inhibit percentage (biotinylated human TIM-3 [3]) of 16.7%. The inhibit percentage (biotinylated human TIM-3 [4]) was 100%, the “EC50 (read off the curve)” value (cynomolgus TIM-3 [5]) was ~0.07 µg/mL and the inhibit percentage (biotinylated human TIM-3 [6]) was 39%. For the same binder, the “IC50 (read off the curve)” value (human TIM-3) was ~4 µg/mL, the binding result (mouse TIM-3) was “no binding” and the inhibit percentage (biotinylated human TIM-3 [7]) was 62.5%. It also gave a Kd [8] of 0.424 nM, a koff [8] of 0.000558 s⁻¹ and a kon [8] of 1.32e+06 M⁻¹ s⁻¹. It also gave an inhibit percentage (biotinylated human TIM-3 [9]) of 56.8% and an inhibit percentage (biotinylated human TIM-3 [10]) of 28.9%.

B6: CH 11# (antibody, V domains shown)
VH: QVKLQQSGPDLVKPGASVKISCKASGYSFTGYYMHWVKQSHGKSLEWIGRVNPNNGGTTYKQKFKGKVILTVDKSSSTAYMELRSLTSEDSAVYYCAREGEYFDYYTMDYWGQGTTVTVSS
VL: DIELTQSPASLAVSLGQRATISCRASESVEYYGTSLMQWYQQKPGQPPKLLIYAASNVESGVPARFSGSVSGTDFSLNIHPVEEDDIAVYFCQQSRKVPITFGSGTKLELK
In the case of B6, the inhibit percentage (biotinylated human TIM-3 [1]) is reported as 29.4%, the inhibit percentage (biotinylated human TIM-3 [2]) is reported as 97.8% and the inhibit percentage (biotinylated human TIM-3 [3]) is reported as 0%. The inhibit percentage (biotinylated human TIM-3 [4]) was 99.6%, the inhibit percentage (biotinylated human TIM-3 [6]) was 99.4% and the binding result (mouse TIM-3) was “no binding”. It also gave an inhibit percentage (biotinylated human TIM-3 [7]) of 100%, a Kd [8] of 19.1 nM and a koff [8] of 0.000705 s⁻¹. It also gave a kon [8] of 36900 M⁻¹ s⁻¹, an inhibit percentage (biotinylated human TIM-3 [9]) of 98.2% and an inhibit percentage (biotinylated human TIM-3 [10]) of 0%.

B7: CH 10# (antibody, V domains shown)
VH: QVQLQQSGAELMKPGASVKISCKAIGYTFSSYWIEWVKQRPGHGLEWIGEISPGRGSTNYNEKFKGKATFTADTSSNTAYMQLSSLTSEDSAVYYCARDYYGSIFDVWGQGTTVTVSS
VL: DIELTQSPALMAASPGEKVTITCSASSSVSSSYLHWYQQKPGSSPKLWIYSTSNLASGVPARFSGSGSGTSYSLTISSMEAEDAATYYCQQWSSYPLTFGAGTKLEIK
Work on B7 yielded an inhibit percentage (biotinylated human TIM-3 [1]) of 35.4%, an inhibit percentage (biotinylated human TIM-3 [2]) of 98.2% and an inhibit percentage (biotinylated human TIM-3 [3]) of 48.5%. The inhibit percentage (biotinylated human TIM-3 [4]) was 98.6%, the inhibit percentage (biotinylated human TIM-3 [6]) was 98.1% and the “IC50 (read off the curve)” value (human TIM-3) was ~4 µg/mL. For the same binder, the binding result (mouse TIM-3) was “no binding”, the inhibit percentage (biotinylated human TIM-3 [7]) was 99.7% and the Kd [8] was 38.2 nM. It also gave a koff [8] of 0.00148 s⁻¹, a kon [8] of 38600 M⁻¹ s⁻¹ and an inhibit percentage (biotinylated human TIM-3 [9]) of 100%. For the same binder, the inhibit percentage (biotinylated human TIM-3 [10]) was 45.8%.

B8: 39D1 (antibody, V domains shown)
VH: QVQLQQSGAELMKPGASVKISCKATGYTFSSSYWIEWVKQRPGHGLEWIGEILPGSGSINYNEKFKGKATFTADTSSNTVYMQLSSLTSDDSAVYYCARSYYYVMDYWGQGTSVTVSS
VL: QIVLTQSPAIMSASPGEMLTITCSASSSVRFMHWFQQKPGTSPKLWIYSTSNLASGVPARFSGSGSGTSYSLTVSRMEAEDAATYYCQQRSSYPPTFGGGTKLEIK
B8 was tested, and the “EC50 (read off the curve)” value (cynomolgus TIM-3 [11]) was ~0.02 µg/mL, the Kd [8] was 1.13 nM and the koff [8] was 0.00141 s⁻¹. For the same binder, the kon [8] was 1.25e+06 M⁻¹ s⁻¹.
